Test results reported in US20130142732, “RECOMBINANT FLUORESCENT NANOPARTICLES” (KOREA UNIVERSITY RESEARCH AND BUSINESS FOUNDATION, published 2013).

Assays:
PDGF-BB [1] = molecular target: T1, PDGF-BB (UniProt P01127 P01127:82-190); assay: printed as 5.0 x 1011 mol/L, exponent sign lost; sandwich plate assay with biotin-aptamer capture, PBS, 37 C, linearized Langmuir; details: tags: Sigma-Aldrich; chain copies: 2 (homodimer, inferred); label: Cy3
Description: (§1) On the Basis of the linearized form of the Langmur absorption isotherm and the linear curve of FIG. 5C, the dissociation constants (KD) were determined by a PDGF-BB analysis method using each of the DNA-aptamer-conjugated gFFNP, eGFP, and Cy3, and the results are shown in Table 7.

PDGF-BB [2] = molecular target: T1, PDGF-BB; assay: printed as 4.0 x 1011 mol/L, exponent sign lost; sandwich plate assay with biotin-aptamer capture, PBS, 37 C, linearized Langmuir; details: tags: Sigma-Aldrich; chain copies: 2 (homodimer, inferred); label: eGFP
Description: as §1

T1 sequence (P01127 82-190, one chain of several): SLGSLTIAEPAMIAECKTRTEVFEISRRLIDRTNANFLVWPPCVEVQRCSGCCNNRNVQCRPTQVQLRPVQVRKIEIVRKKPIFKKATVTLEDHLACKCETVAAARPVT

Binder	Kd (PDGF-BB [1])	Kd (PDGF-BB [2])
CACAGGCTACGGCACGTAGAGCATCACCATGATCCTGTGT (ssDNA, 5'-Cy3) [PDGF-BB DNA aptamer Cy3-modified]	0.05 nM	
CACAGGCTACGGCACGTAGAGCATCACCATGATCCTGTGT (ssDNA, 5'-NH2-(CH2)6, SSMCC-coupled to eGFP(S175C)) [PDGF-BB DNA aptamer conjugated to eGFP]		0.04 nM
